In article PMC9601805, “Characterization of the Escherichia coli pyridoxal 5′‐phosphate homeostasis protein (YggS): Role of lysine residues in PLP binding and protein stability” (Protein Science : A Publication of the Protein Society, 2022):
Residue numbers refer to the chain shown, from its start. Names may count otherwise.

B1: WT: recombinant His-tagged wild-type E. coli YggS, the PLP homeostasis protein (PLPHP) (protein)
chain: MNDIAHNLAQVRDKISAAATRCGRSPEEITLLAVSKTKPASAIAEAIDAGQRQFGENYVQEGVDKIRHFQELGVTGLEWHFIGPLQSNKSRLVAEHFDWCHTIDRLRIATRLNDQRPAELPPLNVLIQINISDENSKSGIQLAELDELAAAVAELPRLRLRGLMAIPAPESEYVRQFEVARQMAVAFAGLKTRYPHIDTLSLGMSDDMEAAIAAGSTMVRIGTAIFGARDYSKK
modifications: PLP covalently bound to Lys36 through a Schiff base linkage; left off: His-tag, end not stated, kept
B2: K137A: E. coli YggS single lysine variant K137A (protein)
chain: B1 chain with K137A
modifications: left off: His-tag, C-terminal, state not stated
B3: ΔK233/K234: E. coli YggS variant lacking the last two C-terminal residues K233 and K234 (protein)
chain: MNDIAHNLAQVRDKISAAATRCGRSPEEITLLAVSKTKPASAIAEAIDAGQRQFGENYVQEGVDKIRHFQELGVTGLEWHFIGPLQSNKSRLVAEHFDWCHTIDRLRIATRLNDQRPAELPPLNVLIQINISDENSKSGIQLAELDELAAAVAELPRLRLRGLMAIPAPESEYVRQFEVARQMAVAFAGLKTRYPHIDTLSLGMSDDMEAAIAAGSTMVRIGTAIFGARDYS
modifications: left off: His-tag, N-terminal, state not stated
B4: K36A/K38A/K137A: E. coli YggS triple lysine variant (protein)
chain: B1 chain with K36A, K38A, K137A
modifications: left off: His-tag, C-terminal, state not stated
notes: E. coli YggS triple lysine variant

Assays:
[1] = molecular target: T1, apo‐YggS (Escherichia coli, UniProt P67080); assay: biochemical; format: binding
T1 construct: made in house; host or cells: E. coli HMS174(DE3)
Procedure: Equilibrium binding analyses were carried out by measuring the decrease of protein intrinsic fluorescence observed upon the addition of increasing PLP concentrations to a fixed concentration of apo‐YggS (Figure 1b).
Dissociation constants were calculated from saturation curves obtained measuring the protein fluorescence emission intensity as a function of increasing PLP concentration. […] Fluorescence emission spectra were recorded from 310 to 450 nm upon excitation at 280 nm. Excitation and emission slits were set at 3 and 5 nm, respectively.

[2] = test system: E. coli ΔyggS; assay: 4dPN sensitivity assay and complementation by YggS variants in trans; format: cell-based, Escherichia coli; conditions: for complementation of the 4dPN sensitivity phenotype of ΔyggS: expression in trans, M9 0.4% glucose, 1 μM PN, 20 μl of 25 mM 4dPN
Procedure: Bacteria were grown in Luria‐Bertani (LB; Tryptone 10 g L^− 1, Yeast extract 5 g L^− 1, NaCl 10 g L^− 1) or M9 minimal medium (Cold Spring Harbor Protocols, Cold Spring Harbor, NY) at 37°C, unless otherwise specified. Growth media were solidified with agar (16 g L^− 1; Fisher Scientific) for the preparation of plates. 4dPN toxicity assays were performed on thin (20 ml) M9 minimal medium plates containing 0.4% glucose (carbon source), ampicillin (100 μg ml^−1), 1 μM PN, and 0.02% or 0.2% arabinose when appropriate.
Wild‐type yggS was amplified by PCR with primers DH596 and DH598 from E. coli BW25113 and cloned in pBAD24 using restriction sites SphI and NcoI to give pBY291.3. The pBY291.3 plasmid and its derivatives were then used as templates with the NEB Q5 Site‐Directed Mutagenesis Kit and the primer pairs indicated in Table S4 to introduce site‐directed residue mutant constructs. All constructs were verified by sequencing and transformed into E. coli wild‐type (BW25113) and ΔyggS (VDC6594) electrocompetent cells for use in physiological studies. Plasmid transformations were performed following standard procedures and protein expression from each construct was confirmed by SDS‐PAGE and western blot analysis.
Three isolated colonies of each strain were inoculated into 5 ml LB Amp 200 μg ml^− 1 and incubated at 37°C and 200 rpm overnight. Overnight cultures were diluted 1:500 into 5 ml fresh LB Amp 200 μg ml^− 1 ± 0.02% or 0.2% arabinose and grown at 37°C, shaking. Once cultures reached midlog growth (OD600 of 0.4–0.7) samples were taken from each culture for western blot analysis (below) then cells were again incubated until stationary growth was reached (~6 hr). Cells were harvested by centrifugation then washed twice with and resuspended in 1x PBS. Optical density of washed cells was measured at 600 nm in 1 ml cuvettes (Fisher Scientific) using a BioSpec‐mini DNA/RNA/Protein analyzer (Shimadzu Biotech) and each strain was normalized to an OD600 of 0.006 in 3 ml 1x PBS. […]

[3] = molecular target: T1, apo‐YggS; assay: biochemical; format: binding; conditions: B6 vitamers and analogs
Procedure: The thermal stability of holo‐ and apo‐YggS forms was analyzed by differential scanning fluorimetry (DSF).
Differential scanning fluorimetry (DSF) assays were performed on a Real Time PCR Instrument (CFX Connect Real Time PCR system, Bio‐Rad, Hercules, CA). In a typical experiment, 2 μM WT and variant apo‐YggS forms in 50 mM NaHEPES, pH 7.5, 50 mM NaCl, and Sypro Orange (5x, Thermo Scientific) were mixed with various ligands (total volume of 25 μl) in a 96‐well PCR plate. […] All samples were run in triplicate. Denaturation profiles were analyzed as described in Nardella et al.[40]

[4] = PLP binding equilibrium of YggS WT and variant forms, intrinsic fluorescence change; conditions: E. coli YggS form 0.1 μM, 50 mM NaHEPES pH 7.6, 25°C, excitation 280 nm; mean ± SEM; read-out: K D (nM) of the PLP binding equilibrium
Procedure: Analyses took advantage of YggS intrinsic fluorescence decrease observed upon binding of PLP. Dissociation constants were calculated from saturation curves obtained measuring the protein fluorescence emission intensity as a function of increasing PLP concentration. Fluorescence emission measurements were carried out at 25°C, in 50 mM NaHEPES buffer at pH 7.6 with a FluoroMax‐3 Jobin Yvon Horiba spectrofluorometer, using a 1‐cm path length quartz cuvette. All analyzed YggS forms were used at a final subunit concentration of 0.1 μM. Fluorescence emission spectra were recorded from 310 to 450 nm upon excitation at 280 nm. Excitation and emission slits were set at 3 and 5 nm, respectively. Emission fluorescence values between 330 and 340 nm were averaged and analyzed using the following quadratic equation to obtain K D value: (1) Frel=Finf−F0×PLP+[YggS]+KD−PLP+[YggS]+KD^2−4[YggS]PLP/2/[YggS]+F0

[5] = molecular target: apo‐eSHMT (Escherichia coli, UniProt P0A825); conditions: for PLP transfer kinetics compared with WT YggS: transfer to apo-SHMT
Chain of apo‐eSHMT (P0A825 whole entry): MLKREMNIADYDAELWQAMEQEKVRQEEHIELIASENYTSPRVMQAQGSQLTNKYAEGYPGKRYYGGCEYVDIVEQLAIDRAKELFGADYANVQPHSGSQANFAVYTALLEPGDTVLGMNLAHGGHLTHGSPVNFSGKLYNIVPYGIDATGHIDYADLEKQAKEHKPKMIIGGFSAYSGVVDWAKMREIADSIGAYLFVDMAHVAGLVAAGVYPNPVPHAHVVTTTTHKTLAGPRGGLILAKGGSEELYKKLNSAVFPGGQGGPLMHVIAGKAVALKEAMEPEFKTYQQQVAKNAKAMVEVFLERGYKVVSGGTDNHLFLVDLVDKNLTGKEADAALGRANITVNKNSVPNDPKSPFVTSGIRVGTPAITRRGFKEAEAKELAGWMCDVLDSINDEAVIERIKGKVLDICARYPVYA
Procedure: We set up a novel in vitro discontinuous assay in which PLP transfer from holo‐YggS to the apo‐form of eSHMT could be followed (see Section 4 for details). In this assay, the increase in SHMT activity is measured as PLP dissociates from holo‐YggS and binds to apo‐SHMT, forming the catalytically active holo‐SHMT. […] The binding kinetics of free PLP to either apo‐YggS or apo‐SHMT was measured by manually mixing 20 μM free PLP with 20 μM of protein, observing the formation of the internal aldimine at 420 nm.
WT Holo‐YggS (20 μM with respect to PLP) was mixed with 20 μM apo‐eSHMT in 50 mM NaHEPES buffer at pH 7.6.

[6] = Differential scanning fluorimetry (DSF), apparent Tm of YggS forms; format: physicochemical; conditions: for T m (°C) Apo +2 μM PLP: 2 μM protein + 2 μM (equimolar) PLP; for T m (°C) Apo + 300 μM PLP: 2 μM protein + 300 μM PLP; for T m (°C) Apo: apo-form, 2 μM protein, no PLP
Procedure: Differential scanning fluorimetry (DSF) assays were performed on a Real Time PCR Instrument (CFX Connect Real Time PCR system, Bio‐Rad, Hercules, CA). In a typical experiment, 2 μM WT and variant apo‐YggS forms in 50 mM NaHEPES, pH 7.5, 50 mM NaCl, and Sypro Orange (5x, Thermo Scientific) were mixed with various ligands (total volume of 25 μl) in a 96‐well PCR plate. Fluorescence was measured from 25°C to 95°C in 0.4°C/30 s steps (excitation 450–490 nm; detection 560–580 nm). All samples were run in triplicate. Denaturation profiles were analyzed as described in Nardella et al.[40]

[7] = Covalent (Schiff base) PLP binding judged by absorption spectra; conditions: ~416–420 nm band
Procedure: Our strategy was to start from the K36A variant and gradually add further variations so as to obtain all possible combinations of double, triple, and quadruple variants. Variations of the last two residues at the C‐terminal end of the protein, K233 and K234, were always introduced together and are therefore considered as a single K233A/K234A variation.
All spectroscopic measurements were carried out at 20°C in 20 mM NaHEPES pH 7.5. UV–visible spectra were recorded with a Hewlett‐Packard 8453 diode‐array spectrophotometer. Far‐UV (190–250 nm) and Near‐UV–visible (250–500 nm) CD spectra were measured with a Jasco 710 spectropolarimeter equipped with a DP 520 processor using 0.1‐cm (far‐UV) or 1‐cm path length quartz cuvettes and results were expressed as ellipticity [Θ]. Absorption spectra of WT and variant forms were deconvoluted into their component bands using Metzler's band‐shape analysis method.[22]

[8] = 20 μM holo-YggS, 20 μM apo-SHMT, 37°C

Molecule | Kd [4] | complementation of the 4dPN sensitivity phenotype of ΔyggS [2] | T m (°C) Apo +2 μM PLP [6] | T m (°C) Apo + 300 μM PLP [6] | T m (°C) Apo [6] | capability to bind PLP covalently as a Schiff base [7] | PLP transfer kinetics compared with WT YggS [5] | other results
Cc1ncc(CO)c(C)c1O [4dPN, 4‐deoxypyridoxine, reference compound] | – | – | – | – | – | – | – | change in fluorescence emission attributable to binding ([1]; WT apo-YggS): could only be detected with PL and PNP; 4dPN sensitivity (ring of growth inhibition) ([2]; 20 μl of 25 mM 4dPN in central well, M9 minimal medium with 1 μM PN): clear 4dPN sensitivity phenotype
Cc1ncc(CO)c(C=O)c1O [PL, pyridoxal] | – | – | – | – | – | – | – | Kd ([1]; dissociation constant (K D), ligand binding to WT apo-YggS, fluorescence change, 50 mM NaHEPES pH 7.6): 57000 ± 20000 nM; binding to apo-YggS by DSF [3]: only PL and PNP bind
B1 | 1.3 ± 0.8 nM | complemented | 70.8 ± 0.8 °C | 82.2 ± 0.1 °C | 55.1 ± 0.3 °C | – | – | PLP initially bound to YggS transferred to SHMT at equilibrium [5, 8]: approximately 15%; time to reach PLP transfer equilibrium [5, 8]: about 30 min; rate constant of PLP transfer ([5]; 20 μM holo-YggS, 20 μM apo-SHMT, 37°C, 50 mM NaHEPES pH 7.6): 0.14 ± 0.02 min⁻¹; T m (°C) Apo +2 μM PLP ([6]; listed as apo‐YggS): 70 °C; T m (°C) Apo + 300 μM PLP ([6]; listed as apo‐YggS): about 82 °C; T m (°C) Apo ([6]; listed as apo‐YggS): 56 °C
B2 | 1.8 ± 1.9 nM | failed to complement | 71.5 ± 0.1 °C | 82.5 ± 0.1 °C | 60.3 ± 0.1 °C | able to bind PLP as a Schiff base | same transfer kinetics as that observed with WT YggS | –
B3 | 2.8 ± 0.7 nM | – | 73.1 ± 0.3 °C | 84.0 ± 0.4 °C | 61.4 ± 0.8 °C | able to bind PLP as a Schiff base | – | –
B4 | 43 ± 19 nM | – | 69.4 ± 0.1 °C | 75.2 ± 1.2 °C | 68.9 ± 0.2 °C | – | faster and much more extensive transfer of PLP | –
